Results: the supplement of paper PMC6379048

Tests used:
Experiment in all cases: EC50 of free RNA motif oligo competing protein binding to immobilised probe
[1] = target: CNBP (UniProt P62633)
Method in brief: (§1)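 Kd was calculated as EC50, taken from a four-parameter log-logistic fit, multiplied by a protein-dependent depletion factor. The assay used HEK293-FT lysate (2.5 mg protein/well) pre-incubated for 1 h at 4°C with free RNA oligos (0 nM to 30 μM), then incubated for 30 min at 4°C with the matching oligos bound through a 5′-amino-C6 linker to NHS-Sepharose beads. Bound proteins were measured by label-free LC-MS/MS and normalised to the control.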

[2] = target: T1, FASTKD2 (UniProt Q9NYY8)
T1 sequence: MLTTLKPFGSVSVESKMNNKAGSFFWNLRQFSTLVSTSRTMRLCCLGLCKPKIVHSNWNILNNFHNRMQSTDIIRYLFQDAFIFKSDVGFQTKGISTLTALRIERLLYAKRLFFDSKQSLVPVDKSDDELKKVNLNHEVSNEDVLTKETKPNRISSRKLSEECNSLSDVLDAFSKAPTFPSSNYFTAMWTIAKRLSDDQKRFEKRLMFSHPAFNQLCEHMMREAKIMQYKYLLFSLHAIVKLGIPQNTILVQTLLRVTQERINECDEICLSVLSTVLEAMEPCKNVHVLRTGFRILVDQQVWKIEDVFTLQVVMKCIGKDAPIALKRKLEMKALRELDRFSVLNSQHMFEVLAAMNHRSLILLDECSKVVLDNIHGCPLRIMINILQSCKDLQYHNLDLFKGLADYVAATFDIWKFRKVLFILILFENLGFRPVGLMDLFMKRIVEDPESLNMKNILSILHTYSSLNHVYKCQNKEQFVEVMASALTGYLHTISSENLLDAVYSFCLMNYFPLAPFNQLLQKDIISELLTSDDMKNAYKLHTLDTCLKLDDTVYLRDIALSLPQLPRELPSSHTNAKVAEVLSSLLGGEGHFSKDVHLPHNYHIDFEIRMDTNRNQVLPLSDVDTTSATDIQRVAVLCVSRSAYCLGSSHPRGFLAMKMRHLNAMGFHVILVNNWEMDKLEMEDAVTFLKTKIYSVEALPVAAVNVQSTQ
Method in brief: as §1

[3] = target: MRPS18B (UniProt Q9Y676)
Method in brief: as §1

[4] = target: MRPS7 (UniProt Q9Y2R9)
Method in brief: as §1

[5] = target: T2, ZCRB1 (UniProt Q8TBF4)
T2 sequence: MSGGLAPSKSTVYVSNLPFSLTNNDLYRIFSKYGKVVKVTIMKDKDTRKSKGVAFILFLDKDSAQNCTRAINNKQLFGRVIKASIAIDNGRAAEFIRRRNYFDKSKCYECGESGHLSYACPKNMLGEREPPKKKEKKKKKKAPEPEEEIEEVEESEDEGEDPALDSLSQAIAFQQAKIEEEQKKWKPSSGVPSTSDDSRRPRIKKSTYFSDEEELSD
Method in brief: as §1

[6] = target: T3, RBM47 (UniProt A0AV96)
T3 sequence: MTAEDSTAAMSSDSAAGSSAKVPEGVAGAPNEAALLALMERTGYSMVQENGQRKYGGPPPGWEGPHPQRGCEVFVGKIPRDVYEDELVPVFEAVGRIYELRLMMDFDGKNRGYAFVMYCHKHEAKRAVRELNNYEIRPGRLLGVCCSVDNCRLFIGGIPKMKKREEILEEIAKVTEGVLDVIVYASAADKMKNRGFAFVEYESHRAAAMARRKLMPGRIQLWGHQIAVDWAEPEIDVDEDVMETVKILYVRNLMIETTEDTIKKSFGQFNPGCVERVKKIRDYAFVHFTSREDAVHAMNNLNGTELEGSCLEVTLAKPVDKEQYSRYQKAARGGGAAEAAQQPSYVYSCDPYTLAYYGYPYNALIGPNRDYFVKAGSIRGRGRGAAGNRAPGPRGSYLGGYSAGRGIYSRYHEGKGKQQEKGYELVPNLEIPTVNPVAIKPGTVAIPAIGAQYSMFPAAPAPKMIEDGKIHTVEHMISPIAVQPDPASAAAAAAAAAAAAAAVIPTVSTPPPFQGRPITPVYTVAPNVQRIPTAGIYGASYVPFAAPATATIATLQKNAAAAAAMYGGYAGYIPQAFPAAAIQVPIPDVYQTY
Method in brief: as §1

[7] = target: SRRM2 (UniProt Q9UQ35)
Sequence of SRRM2 (Q9UQ35 whole entry): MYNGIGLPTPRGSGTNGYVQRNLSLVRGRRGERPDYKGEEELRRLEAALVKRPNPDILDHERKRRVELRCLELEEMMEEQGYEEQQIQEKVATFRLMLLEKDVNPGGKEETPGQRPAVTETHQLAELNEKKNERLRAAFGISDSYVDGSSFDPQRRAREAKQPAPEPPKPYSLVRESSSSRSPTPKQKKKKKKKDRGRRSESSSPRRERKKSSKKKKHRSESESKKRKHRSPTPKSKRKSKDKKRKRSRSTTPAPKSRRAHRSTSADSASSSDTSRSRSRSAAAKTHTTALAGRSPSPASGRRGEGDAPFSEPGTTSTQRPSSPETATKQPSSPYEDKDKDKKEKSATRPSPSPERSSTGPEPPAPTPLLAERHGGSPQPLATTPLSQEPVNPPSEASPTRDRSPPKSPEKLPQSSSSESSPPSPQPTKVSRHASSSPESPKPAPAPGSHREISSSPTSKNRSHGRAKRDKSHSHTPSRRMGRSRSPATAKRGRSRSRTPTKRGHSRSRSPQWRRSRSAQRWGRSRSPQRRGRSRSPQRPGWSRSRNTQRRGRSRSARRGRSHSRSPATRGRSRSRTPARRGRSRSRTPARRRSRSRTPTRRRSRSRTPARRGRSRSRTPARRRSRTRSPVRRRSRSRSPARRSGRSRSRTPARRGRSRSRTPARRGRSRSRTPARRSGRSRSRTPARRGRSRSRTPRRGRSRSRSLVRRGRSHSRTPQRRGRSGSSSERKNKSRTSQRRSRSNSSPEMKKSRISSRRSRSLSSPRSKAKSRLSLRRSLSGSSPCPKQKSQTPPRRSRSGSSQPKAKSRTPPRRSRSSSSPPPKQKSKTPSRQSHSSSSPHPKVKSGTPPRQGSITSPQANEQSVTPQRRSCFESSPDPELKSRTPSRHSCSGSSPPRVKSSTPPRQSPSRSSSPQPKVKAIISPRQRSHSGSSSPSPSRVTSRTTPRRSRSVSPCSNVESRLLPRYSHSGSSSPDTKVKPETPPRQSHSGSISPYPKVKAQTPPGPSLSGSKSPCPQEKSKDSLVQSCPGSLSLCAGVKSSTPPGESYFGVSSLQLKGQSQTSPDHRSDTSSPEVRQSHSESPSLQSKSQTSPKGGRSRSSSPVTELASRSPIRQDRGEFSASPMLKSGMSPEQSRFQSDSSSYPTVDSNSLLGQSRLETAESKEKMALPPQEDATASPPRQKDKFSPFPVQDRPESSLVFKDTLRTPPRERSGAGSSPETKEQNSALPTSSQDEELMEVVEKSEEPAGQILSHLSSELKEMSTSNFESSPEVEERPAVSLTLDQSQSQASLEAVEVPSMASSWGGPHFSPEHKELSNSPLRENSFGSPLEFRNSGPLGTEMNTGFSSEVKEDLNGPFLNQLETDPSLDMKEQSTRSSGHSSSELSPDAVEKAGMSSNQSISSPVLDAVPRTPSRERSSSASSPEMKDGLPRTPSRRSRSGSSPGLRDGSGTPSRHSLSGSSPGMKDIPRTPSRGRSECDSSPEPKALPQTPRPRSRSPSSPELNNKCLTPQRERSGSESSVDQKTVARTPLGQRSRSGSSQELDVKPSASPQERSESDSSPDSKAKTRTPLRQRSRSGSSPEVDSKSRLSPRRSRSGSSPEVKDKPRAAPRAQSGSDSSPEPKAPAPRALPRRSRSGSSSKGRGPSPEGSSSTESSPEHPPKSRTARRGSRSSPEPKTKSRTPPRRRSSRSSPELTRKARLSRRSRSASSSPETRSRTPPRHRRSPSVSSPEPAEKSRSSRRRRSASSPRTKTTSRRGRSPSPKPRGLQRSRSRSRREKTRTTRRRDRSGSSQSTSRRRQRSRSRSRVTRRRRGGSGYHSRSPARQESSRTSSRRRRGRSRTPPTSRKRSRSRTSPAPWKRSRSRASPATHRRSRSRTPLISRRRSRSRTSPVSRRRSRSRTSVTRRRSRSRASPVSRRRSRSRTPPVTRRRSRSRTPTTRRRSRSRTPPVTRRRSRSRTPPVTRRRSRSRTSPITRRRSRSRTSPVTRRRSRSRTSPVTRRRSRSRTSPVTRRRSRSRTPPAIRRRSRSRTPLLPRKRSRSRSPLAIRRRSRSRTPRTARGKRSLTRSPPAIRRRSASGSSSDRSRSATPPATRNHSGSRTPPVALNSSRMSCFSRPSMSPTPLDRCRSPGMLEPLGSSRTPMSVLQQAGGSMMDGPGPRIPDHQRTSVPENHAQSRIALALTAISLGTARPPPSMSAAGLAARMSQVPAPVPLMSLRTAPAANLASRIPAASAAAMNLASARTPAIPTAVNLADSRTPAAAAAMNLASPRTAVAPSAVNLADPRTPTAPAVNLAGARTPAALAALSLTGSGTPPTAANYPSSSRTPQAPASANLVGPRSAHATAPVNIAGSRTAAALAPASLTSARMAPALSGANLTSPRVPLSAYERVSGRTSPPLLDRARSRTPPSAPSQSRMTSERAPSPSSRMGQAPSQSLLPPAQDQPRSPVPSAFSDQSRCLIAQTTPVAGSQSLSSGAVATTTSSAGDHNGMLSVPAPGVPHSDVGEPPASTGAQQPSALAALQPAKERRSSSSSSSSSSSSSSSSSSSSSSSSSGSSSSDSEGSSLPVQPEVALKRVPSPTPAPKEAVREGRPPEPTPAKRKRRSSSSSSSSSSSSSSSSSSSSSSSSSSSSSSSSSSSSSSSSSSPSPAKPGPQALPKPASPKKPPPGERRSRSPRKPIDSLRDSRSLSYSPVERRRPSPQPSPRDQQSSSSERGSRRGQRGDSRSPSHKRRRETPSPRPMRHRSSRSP
Method in brief: as §1

[8] = target: TUBB4B (UniProt P68371)
Sequence of TUBB4B (P68371 whole entry): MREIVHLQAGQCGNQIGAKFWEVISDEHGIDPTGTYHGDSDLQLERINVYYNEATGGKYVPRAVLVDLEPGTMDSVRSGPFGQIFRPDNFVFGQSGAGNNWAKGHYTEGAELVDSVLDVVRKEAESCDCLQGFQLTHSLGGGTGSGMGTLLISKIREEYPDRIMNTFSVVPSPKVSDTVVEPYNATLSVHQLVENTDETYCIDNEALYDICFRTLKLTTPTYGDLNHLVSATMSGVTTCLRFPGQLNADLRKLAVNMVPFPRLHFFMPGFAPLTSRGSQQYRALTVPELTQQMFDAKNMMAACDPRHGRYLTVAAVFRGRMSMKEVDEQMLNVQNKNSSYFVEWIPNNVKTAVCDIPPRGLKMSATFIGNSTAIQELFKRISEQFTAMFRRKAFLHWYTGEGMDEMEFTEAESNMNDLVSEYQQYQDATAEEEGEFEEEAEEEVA
Method in brief: as §1

[9] = target: MRPL11 (UniProt Q9Y3B7)
Method in brief: as §1

[10] = target: MRPL13 (UniProt Q9BYD1)
Method in brief: as §1

[11] = target: MRPL17 (UniProt Q9NRX2)
Method in brief: as §1

[12] = target: MRPL39 (UniProt Q9NYK5)
Method in brief: as §1

[13] = target: RPS12 (UniProt P25398)
Method in brief: as §1

[14] = target: RPS13 (UniProt P62277)
Method in brief: as §1

[15] = target: RPS14 (UniProt P62263)
Method in brief: as §1

Sequence of CNBP (P62633 whole entry): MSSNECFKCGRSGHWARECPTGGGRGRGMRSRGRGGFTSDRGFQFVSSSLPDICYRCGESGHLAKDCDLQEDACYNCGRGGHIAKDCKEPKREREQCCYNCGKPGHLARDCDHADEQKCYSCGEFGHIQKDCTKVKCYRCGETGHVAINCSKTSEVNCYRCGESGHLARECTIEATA

What does the source list for UAUUUAU?
EC50 [1]: 2240 nM; EC50 [2]: 7.86 µM; EC50 [3]: 51.4 nM; EC50 [4]: 84.2 nM; EC50 [5]: 3.8 µM

For AAUAAA, which EC50 [6] is on record?
Its EC50 is 3.73 µM.

What about the EC50 [7] of the same sequence?
The EC50 was 1040 nM.

What about the EC50 [8] of the same sequence?
The EC50 was 1410 nM.

With CUGUCCU as the sequence, how does the EC50 [9] read?
Its EC50 is 118 nM.

What about the EC50 [10] of the same sequence?
Its EC50 is 194 nM.

What about the EC50 [11] of the same sequence?
The EC50 was 51.9 nM.

What about the EC50 [12] of the same sequence?
The EC50 was 248 nM.

And the EC50 [13]?
Its EC50 is 392 nM.

What about the EC50 [14] of the same sequence?
The EC50 was 123 nM.

What about the EC50 [15] of the same sequence?
Its EC50 is 180 nM.
